Results taken from publication PMC11207964.

Biological target: EGFRvIII (UniProt P00533)
Experiment: BLI
Conditions: inverted dT at the end, BLI: association 200 s, dissociation 400 s, PBS + 0.05% Tween-20 (stated for NOTA-aptamer dissociation), protein loading at room temperature, cells: DPBS …

Sequence	Kd (P = 2Nap-dU (5-[N-(2-naphthylmethyl)carboxamide]-2'-deoxyuridine), written as T at 5,9,13,18,19,20,25,26,27,35,42, T1 printed as T) [nM]	Kd (protein on Ni-NTA probe, 125-500 nM aptamer, PBS 0.05% Tween-20, 2Nap-dU written as T at 5,9,13,18,19,20,25,26,27,35,42, 5'-amine conjugated to p-SCN-Bn-NOTA) [nM]
TGAGTAAGTGAGTACCGTTTGCGATTTGGAGAACTACGCAATCA [EGFRvIII aptamer (44 nt)]	0.87	
TGAGTAAGTGAGTACCGTTTGCGATTTGGAGAACTACGCAATCA [NOTA-EGFRvIII aptamer]		2.05
